This note sets out measurements from the DeepSol protein solubility set.

This data set is described as follows: soluble on expression in E. coli; label from the status in PepcDB or PDB records.
“SNQEPATILLIDDHPMLRTGVKQLISMAPDITVVGEASNGEQGIELAESLDPDLILLDLNMPGMNGLETLDKLREKSLSGRIVVFSVSNHEEDVVTALKRGADGYLLKDMEPEDLLKALHQAAAGEMVLSEALTPVLAASLRANRATTERDVNQLTPRERDILKLIAQGLPNKMIARRLDITESTVKVHVKHMLKKMKLKSRVEAAVWVHQERIF”: the “soluble on expression in E. coli” value is recorded as “soluble”. The entry for “GPGSMPIKAVVTDLDGTLLDPQHCISNYAAEVLKKIKEKGICFIVATGRPYAEVFNRIRHCHLAPDYIITSNGARIHDGAFNVVREHNLRPELVESLARVRTVKDPATGAELPKKFTTNIYRGAEWLTDKSIPEVSKAFHTDFQCTDLRERFYELQASELGDVHEIWFAGDHDELVLLDNALREKYPGDLCCTFSLPHLLDCVPAGVNKGNGVREAAEMLGLALDEVACFGDGMNDESMLQVTSTSFIMANAQQRLKDAVPHAQIIGSNADDGVAKKLEEMFFSA” is “soluble”; for “MQVRRAVLGAAHVERSLANLTPFNEEFQEMITRHAWGDIWTRPGLPRHTRSLVTIAMLIGMNRNEELKLHLRAAKNNGVSRDEIKEVIMQSAIYCGIPAANATFHLAESVWDELGVESQQASR” it is “not soluble”. Under “MKKFDVAIVGGGLAGLTASIYLAKAGRKVIVLEKSSRFGGRGMTINKNGICMNLGAHALYRGGAAFLTFNELGMNLPGGIPSTKAHGIWKGDIFTIPTDFRSILSTPLLSWSAKVQFSRLMILLGNLDVGEVPKMSLTTWAEHEIKDPMVRNIFYALCRTTTYTFAPTIQLASSVLKQIQLSIKEGVFYVDGGWETIITKLRDIANHVGVQFLSKKHVLEIEHYEDKQRIYCFDDEVFEVGTVIVTTPPKEACNIIKGAEGTSLQRWSEQSIPVTVTALDIGLRRLPNPTHQFALGLDQPIFFTNQSRAAKLSDDGSIAVSLIKYQNPALEMKHIHEDKGQLESTMDLLHPNWKREVVAQQYLPTIKVVYDFPHINRVETPGPNIPEMPGVYVAGDWAGHDEILADAAVASGKRAALHILKQLESEAVHHGNGAIILEHHHHHH” stands “not soluble”; under “MVIKDPRITRFRKMLAQATNYEQWKAAALELDFLEGNAEWKEDFASDLYHYELIYDRLSNLKQYRQQNDFERLKRALREGLHHDLGNMGNPALYTRSRVGTKHLIEEYITQVCESLDYLCDHPVPGFPVYDKLQFFRDTLTSYGRPTLLLSGGASLGMFHFGVIKALWEKGLLPQVIAGSSIGAIIAGILGIHTDAEIPEMLVPESHNLKAWKWRGLLSAMRGTGLMDQDTLRRCLRENIGDYTFEEAYQRTGRSINISVSPVQAHQKARLLCGYTSPYLLVWSAALASAAVPGIFPPVTLMKKDLNGNSLPYMPRLKFVDGSVVSDLPIERLMHLYDVNFTIVSQTNPHVVPFLTDRGQDEKLSLTNLPSHLLKSEVQFHGQGVFDYLRKRVRPEILRQLSGQMYTIMAQRYSGDVTIAPNYSLRHFRRMLANPSPEYVREMILEGERATWPKISMIRSHARISKTLERCVRRLKQQNRRAAELEHHHHHH”, “not soluble”; under “MGSDKIHHHHHHMVSLMEHGMLPDAVIRSGIRRLLMKRLQEESCGDTEADRARQREFFEQLSHSPLAMETGAANKQHYELPPDFFSLVLGPRRKYSCCLYPPGVDDLATAEEAMLRLTCQRAGLADGMDILELGCGWGSLTLWMAEHYPDARITAVSNSAPQRQFIQGACRGRGFGNVRVITADMNDFTIEKTFDRVVSVEMFEHMRNYAELLRRIAGWLKDDGRLFVHIFCHRTLAYLFQTDGEDDWMGRYFFTGGIMPSDHLLFYFNDHLAVEDHWRVGGRHYQRTCDGWLERMDTERRKILEIFWDVYEGDAPVWFQRWRVFFMACSELFGYSEGNEWFVSHYLLRKNSAGVLCGNRQKALSFSGVCK”, “not soluble”.

For the sequence “MSLEELLERVFSFSDVDKLIDFISYELQKPVILESADFFLLAYNSYYINHFDSANQQTIFSKKCPVQIFERFLKDGIIEKLKTEPEPFRVNKIESIGLNQRVVVSAKHKGEVMGYIWIQELDQNLTDEELDFLYETSFHVGKIIYKTNKLKQEKEEKAEDLIKRAIYQQFTSEKELRREAERINTVLPSMFSVVILHAANGDGEAVEDLKENIRSYLNLRDKVSHVLTIESNIVIVVASFSQKSSVSSAASEFINKLLTHFHFQKIPTPIYIGIGNEYNHLLKLGKSYTEALEVIKAAEITGNQENIPYEYAKLGIYRYLESIEQKNEFLEYENKDLALLKAKDEESSTELLKTLEVYLLNNCKTKPAAEQLFIHQNTLNYRIKQITEMTSIDLSDFRTRCQLYLDLMLMKKKEGGSHHHHHH”, the “soluble on expression in E. coli” value was “soluble”. The entry for “MGSDKIHHHHHHMKIGAVLTREQVISARYVHHGLLTPFPDPLVAAQRLAGVQAQILPAAGLALWNRVAGFSADQLEHLLYHERSLVRLWGQRGTLHLYAMTDWPLVYGMQAGQATYWEQEAQRDGWAVDEYEAFIARVGDLLYEHETLGRSDLRRLLPAIDQRHLSGWGGVFAILTRRGLACHAAPRGGEARMTHRLRWRPDLVWEPPDTDTANAEMLRRYLAVFGPVRLVDMTCWRGRTQAEMKRWLALIGEEVVRVSVDGQPAWWLQSYLDRLADLPTPADLPPHLLGRFDPLLLGTRDKSWLIDADVYNRVWRPAGHIEATMLVHGRIAGTWRYDWRGSSIVVTLRPFKPLPPSERIRIESLAAGVAEHFAAPLGDCRWEAVA” is “not soluble”; for “MSLSGMELSYRRSDLIFKRPAGTSRGVLTSKPTWFVRLDIDGHGGQGEVSLIPGLSLDPEEQIGRELDLLARRLRAEEPIRLRQFLAERGGADFSDYRSVLTDIAGILDSWQVSTDGRFPALRFALEMALLDLLSGGRQEWFASDFTRGEKRIPVNGLIWMGEAAFMQEQIEAKLAEGYGCLKLKIGAIDFDKECALLAGIRESFSPQQLEIRVDANGAFSPANAPQRLKRLSQFHLHSIEQPIRQHQWSEMAALCANSPLAIALDEELIGLGAEQRSAMLDAIRPQYIILKPSLLGGFHYAGQWIELARERGIGFWITSALESNLGLAAIAQWTALYQPTMPQGLGTGQLYTNNLPSNLAVDGGLLGVSEGHHHHHH” it is “soluble”; for “MNKTKNYSDETIDAFHRGKFYLVQPRLCGHRSGMDAMLLASLVPNNFKGKVVDLGAGAGAVGLAVAARCLDVHVTLVERSAFMVSYAQKTLMLKQNENLSKRVCLLKADVTLKGRSRLEAGLVDNAFDFAIMNPPFNNPVDRKTPDEKKFEAHVMPESMFDDWLRSAAAIVKPGGYLGLIARPQSLTDILCALEGRFGNICVIPIHARTEKAAIRVLFYAKRGSRAALSLLRPLVIHEDGCHIFSPKIDAINNGHISLWELLK” it is “not soluble”. The entry for “MTTGTEEARIPLDPFVTDLDGESARLRAAGPLAAVELPGGVPVWAVTHHAEAKALLTDPRLVKDINVWGAWRRGEIPADWPLIGLANPGRSMLTVDGAEHRRLRTLVAQALTVRRVEHMRGRITELTDRLLDELPADGGVVDLKAAFAYPLPMYVVADLMGIEEARLPRLKVLFEKFFSTQTPPEEVVATLTELASIMTDTVAAKRAAPGDDLTSALIQASENGDHLTDAEIVSTLQLMVAAGHETTISLIVNAVVNLSTHPEQRALVLSGEAEWSAVVEETLRFSTPTSHVLIRFAAEDVPVGDRVIPAGDALIVSYGALGRDERAHGPTADRFDLTRTSGNRHISFGHGPHVCPGAALSRMEAGVALPALYARFPHLDLAVPAAELRNKPVVTQNDLFELPVRLAHHHH” is “soluble”; for “VTDTDLITAGESTDGKPSDAAATDPPDLNADEPAGSLATMVLPELRALANRAGVKGTSGMRKNELIAAIEEIRRQANGAPAVDRSAQEHDKGDRPPSSEAPATQGEQTPTEQIDSQSQQVRPERRSATREAGPSGSGERAGTAADDTDNRQGGQQDAKTEERGTDAGGDQGGDQQASGGQQARGDEDGEARQGRRGRRFRDRRRRGERSGDGAEAELREDDVVQPVAGILDVLDNYAFVRTSGYLPGPHDVYVSMNMVRKNGMRRGDAVTGAVRVPKEGEQPNQRQKFNPLVRLDSINGGSVEDAKKRPEFGKLTPLYPNQRLRLETSTERLTTRVIDLIMPIGKGQRALIVSPPKAGKTTILQDIANAITRNNPECHLMVVLVDERPEEVTDMQRSVKGEVIASTFDRPPSDHTSVAELAIERAKRLVEQGKDVVVLLDSITRLGRAYNNASPASGRILSGGVDSTALYPPKRFLGAARNIEEGGSLTIIATAMVETGSTGDTVIFEEFKGTGNAELKLDRKIAERRVFPAVDVNPSGTRKDELLLSPDEFAIVHKLRRVLSGLDSHQAIDLLMSQLRKTKNNYEFLVQVSKTTPGSMDSD” it is “not soluble”. The entry for “MPSMLERISKNLVKEIGSKDLTPVKYLLSATKLRQFVILRKKKDSRSSFWEQSDYVPVEFSLNDILEPSSSVLETVVTGPFHFSDIMIQKHKADMGVNVGIEVSVSGEASVDHGCSLEFQIVTIPSPNLEDFQKRKLLDPEPSFLKECRRRGDNLYVVTEAVELINNTVLYDSSSVNILGKIALWITYGKGQGQGESLRVKKKALTLQKGMVMAYKRKQLVIKEKAILISDDDEQRTFQDEYEISEMVGYCAARSEGLLPSFHTISPTLFNASSNDMKLKPELFLTQQFLSGHLPKYEQVHILPVGRIEEPFWQNFKHLQEEVFQKIKTLAQLSKDVQDVMFYSILAMLRDRGALQDLMNMLELDSSGHLDGPGGAILKKLQQDSNHAWFNPKDPILYLLEAIMVLSDFQHDLLACSMEKRILLQQQELVRSILEPNFRYPWSIPFTLKPELLAPLQSEGLAITYGLLEECGLRTELDNPRSTWDVEAKMPLSALYGTLSLLQQLAEA” is “soluble”. With “MAHHHHHHMYAPFAAQEGNGGMFDFFFSAAASETLCASSAGSNSNNTGIGHGGGEAANGFNAASAGPLVENNNSNDDRVGRLNFDFASFFFQGGQSGAYDDSGLDAAGRGDDGSGADARRSEHYIQRGSADAADSTGKGVLPALGFFFPEDQVAPAAAGGSLILPPTSWCVESAAGADNRYSPPQVQPQNPAAVRETAASLKGDEAAHTVAPPGAALTVLKSDPTHIAPVDQTLVQRLPCEHASSSAMDHECSLAAALAAAPSSLGLLSDEESQRTTVPLSRTSDAEEAKCDETPTRLVAGNSCPEPEARDSSVAEGVAEEDAMPAPTHSRQPPPRVPVVSLPRSSHPPGAAPAGAVVTPTPPSPRQPPAPLTVSTSTPYRPEVPLLIGPAGHDATSVALSKAIGEAEEVWAHRLDMVPITCPERRDAEMGMSCSGFTPSSSSDAVFLAEVAQLQQQTARLTEESARSVTSLQVLTSDLLRILGPHAALSSFAGEQYAGTPLVHLPWALIAVLEGLLNDDADAEEKAEGQLVAPRPSSEGVESGSSGVHDA”, the “soluble on expression in E. coli” value is given as “not soluble”. On to “MKKILFDVDGVFLSEERCFDVSALTVYELLMDKCYLGLHSHIDWETLTDNDIQDIRNRIFQKDKILNKLKSLGLNSNWDMLFIVFSIHLIDILKKLSHDEIEAFMYQDEPVELKLQNISTNLADCFNLNEQLPLQFLDNVKVGKNNIYAALEEFATTELHVSDATLFSLKGALWTLAQEVYQEWYLGSKLYEDVEKKIARTTFKTGYIYQEIILRPVDEVKVLLNDLKGAGFELGIATGRPYTETVVPFENLGLLPYFEADFIATASDVLEAENMYPQARPLGKPNPFSYIAALYGNNRDKYESYINKQDNIVNKDDVFIVGDSLADLLSAQKIGATFIGTLTGLKGKDAAGELEAHHADYVINHLGELRGVLDNLLEHHHHHH”, for which the “soluble on expression in E. coli” value is “soluble”. The entry for “MRYCQFEGCSNTTEKGAYCSEHARKSRKKKKPINVYHHDNKSFYRTKEWQDVADFVYEREGGCCQRCGRFVFGRQAHRHHVIPIKKNEMLKLDPNNIRLLCPKCHVIEENEADEKKVFPSYFKKLEHHHHHH” is “soluble”; for “SLSSKDKDTVKALWGKIADKAEEIGSDALSRMLAVYPQTKTYFSHWKDLSPGSAPVNKHGKTIMGGIVDAVASIDDLNAGLLALSELHAFTLRVDPANFKILSHCILVLLAVKFPKDFTPEVHISYDKFFSALARALAEKYR” it is “soluble”.
